For the assay, the target named is T1, Rnd1 mutant W66L (residues 5-200) (UniProt Q92730 5-200, W66L).
T1 sequence (looked up): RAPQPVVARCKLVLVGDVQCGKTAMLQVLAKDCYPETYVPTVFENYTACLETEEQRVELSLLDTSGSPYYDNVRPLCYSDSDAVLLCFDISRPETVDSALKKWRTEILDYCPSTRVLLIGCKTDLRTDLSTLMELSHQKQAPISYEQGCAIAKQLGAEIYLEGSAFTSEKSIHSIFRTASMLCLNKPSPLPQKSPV
In words: ITC. (ITC needs no label: the signal is the heat of the interaction.)

B1: plexin-B1 Rho GTPase binding domain (RBD) (domain or fragment)
chain: DVEYRPLTLNALLAVGPGAGEAQGVPVKVLDCDTISQAKEKMLDQLYKGVPLTQRPDPRTLDVEWRSGVAGHLILSDEDVTSEVQGLWRRLNTLQHYKVPDGATVALVPCLTKHVLRENQ
What is called Kd is the concentration at which binding is half-saturated. Low values mean a tighter complex, high ones a looser complex. The stoichiometry N is the number of molecules, sites or subunits per partner or assembly. With B1, the Ka is 209000 M⁻¹, the dissociation constant Kd was 4.8 ± 0.5 µM, the dH was -3.9 ± 0.1 kcal/mol and the “stoichiometry N” value turned out to be 0.98.
